In patent US20150140169:

T1: alpha-s1 casein from Bos taurus
T1 chain: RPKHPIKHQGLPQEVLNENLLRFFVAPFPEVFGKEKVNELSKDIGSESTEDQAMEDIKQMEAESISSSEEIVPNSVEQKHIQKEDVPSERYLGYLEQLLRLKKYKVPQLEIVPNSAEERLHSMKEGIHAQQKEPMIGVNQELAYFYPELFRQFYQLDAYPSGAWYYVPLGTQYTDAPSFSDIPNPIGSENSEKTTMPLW


Biological target: T1, alpha-s1 casein from Bos taurus

| Protein | hydrolysis of the first cut in alpha-s1-casein | small, 16 hours, 30° C. [Volume] | αs1-I CN, 16 hours, 30° C. [Volume] | αs1 CN, 16 hours, 30° C. [Volume] | small, 6 hours, 11° C. [Volume] | small, 24 hours, 11° C. [Volume] | αs1-I CN, 6 hours, 11° C. [Volume] | αs1-I CN, 24 hours, 11° C. [Volume] | αs1-I CN/αs1 CN, 6 hours, 11° C. | αs1-I CN/αs1 CN, 24 hours, 11° C. |
| --- | --- | --- | --- | --- | --- | --- | --- | --- | --- | --- |
| bovine chymosin B variant #98 (A51V, K221V, S135T, A126G, S273Y, Q240E) (protein) GEVASVPLTNYLDSQYFGKIYLGTPPQEFTVLFDTGSSDFWVPSIYCKSNVCKNHQRFDPRKSSTFQNLGKPLSIHYGTGSMQGILGYDTVTVSNIVDIQQTVGLSTQEPGDVFTYAEFDGILGMGYPSLASEYTIPVFDNMMNRHLVAQDLFSVYMDRNGQESMLTLGAIDPSYYTGSLHWVPVTVQQYWQFTVDSVTISGVVVACEGGCQAILDTGTSVLVGPSSDILNIQQAIGATENQYGEFDIDCDNLSYMPTVVFEINGKMYPLTPYAYTSQDQGFCTSGFQSENHSQKWILGDVFIREYYSVFDRANNLVGLAKAI | show a clear hydrolysis of the first cut in alpha-s1-casein, leading to a rapid formation of fragment alpha-s1-I casein | 1.4e+06 | 1.96e+07 | 1.5e+06 | – | – | – | – | – | – |
| bovine chymosin B variant #71 (A51V, K221V) (protein) GEVASVPLTNYLDSQYFGKIYLGTPPQEFTVLFDTGSSDFWVPSIYCKSNVCKNHQRFDPRKSSTFQNLGKPLSIHYGTGSMQGILGYDTVTVSNIVDIQQTVGLSTQEPGDVFTYAEFDGILGMAYPSLASEYSIPVFDNMMNRHLVAQDLFSVYMDRNGQESMLTLGAIDPSYYTGSLHWVPVTVQQYWQFTVDSVTISGVVVACEGGCQAILDTGTSVLVGPSSDILNIQQAIGATQNQYGEFDIDCDNLSYMPTVVFEINGKMYPLTPSAYTSQDQGFCTSGFQSENHSQKWILGDVFIREYYSVFDRANNLVGLAKAI | show a clear hydrolysis of the first cut in alpha-s1-casein, leading to a rapid formation of fragment alpha-s1-I casein | 2.4e+06 | 1.97e+07 | 1.6e+06 | 0 | 0 | 2.54e+07 | 2.46e+07 | 2.9 | 9.8 |
| camel chymosin variant #166 (I297T) (protein) GKVAREPLTSYLDSQYFGKIYIGTPPQEFTVVFDTGSSDLWVPSIYCKSNVCKNHHRFDPRKSSTFRNLGKPLSIHYGTGSMEGFLGYDTVTVSNIVDPNQTVGLSTEQPGEVFTYSEFDGILGLAYPSLASEYSVPVFDNMMDRHLVARDLFSVYMDRNGQGSMLTLGAIDPSYYTGSLHWVPVTLQQYWQFTVDSVTINGVAVACVGGCQAILDTGTSVLFGPSSDILKIQMAIGATENRYGEFDVNCGNLRSMPTVVFEINGRDYPLSPSAYTSKDQGFCTSGFQGDNNSELWTLGDVFIREYYSVFDRANNRVGLAKAI | – | – | – | – | – | – | 1.8e+07 | 1.33e+07 | – | – |
| camel chymosin variant #136 (F223C) (protein) GKVAREPLTSYLDSQYFGKIYIGTPPQEFTVVFDTGSSDLWVPSIYCKSNVCKNHHRFDPRKSSTFRNLGKPLSIHYGTGSMEGFLGYDTVTVSNIVDPNQTVGLSTEQPGEVFTYSEFDGILGLAYPSLASEYSVPVFDNMMDRHLVARDLFSVYMDRNGQGSMLTLGAIDPSYYTGSLHWVPVTLQQYWQFTVDSVTINGVAVACVGGCQAILDTGTSVLCGPSSDILKIQMAIGATENRYGEFDVNCGNLRSMPTVVFEINGRDYPLSPSAYTSKDQGFCTSGFQGDNNSELWILGDVFIREYYSVFDRANNRVGLAKAI | – | – | – | – | – | – | 2.06e+07 | 2.03e+07 | – | – |
| camel chymosin variant #137 (F223D) (protein) GKVAREPLTSYLDSQYFGKIYIGTPPQEFTVVFDTGSSDLWVPSIYCKSNVCKNHHRFDPRKSSTFRNLGKPLSIHYGTGSMEGFLGYDTVTVSNIVDPNQTVGLSTEQPGEVFTYSEFDGILGLAYPSLASEYSVPVFDNMMDRHLVARDLFSVYMDRNGQGSMLTLGAIDPSYYTGSLHWVPVTLQQYWQFTVDSVTINGVAVACVGGCQAILDTGTSVLDGPSSDILKIQMAIGATENRYGEFDVNCGNLRSMPTVVFEINGRDYPLSPSAYTSKDQGFCTSGFQGDNNSELWILGDVFIREYYSVFDRANNRVGLAKAI | – | – | – | – | – | – | 2.26e+07 | 2.55e+07 | – | – |
| camel chymosin variant #167 (I297V) (protein) GKVAREPLTSYLDSQYFGKIYIGTPPQEFTVVFDTGSSDLWVPSIYCKSNVCKNHHRFDPRKSSTFRNLGKPLSIHYGTGSMEGFLGYDTVTVSNIVDPNQTVGLSTEQPGEVFTYSEFDGILGLAYPSLASEYSVPVFDNMMDRHLVARDLFSVYMDRNGQGSMLTLGAIDPSYYTGSLHWVPVTLQQYWQFTVDSVTINGVAVACVGGCQAILDTGTSVLFGPSSDILKIQMAIGATENRYGEFDVNCGNLRSMPTVVFEINGRDYPLSPSAYTSKDQGFCTSGFQGDNNSELWVLGDVFIREYYSVFDRANNRVGLAKAI | – | – | – | – | – | – | 2.02e+07 | 2.29e+07 | – | – |

Same assay, conditions: not given

| Protein | αs1 CN, 6 hours, 11° C. [Volume] | αs1 CN, 24 hours, 11° C. [Volume] | (αSN1-1)/(αSN1), 6 hours, 11° C. | (αSN1-1)/(αSN1), 24 hours, 11° C. |
| --- | --- | --- | --- | --- |
| bovine chymosin B variant #71 (A51V, K221V) (protein) GEVASVPLTNYLDSQYFGKIYLGTPPQEFTVLFDTGSSDFWVPSIYCKSNVCKNHQRFDPRKSSTFQNLGKPLSIHYGTGSMQGILGYDTVTVSNIVDIQQTVGLSTQEPGDVFTYAEFDGILGMAYPSLASEYSIPVFDNMMNRHLVAQDLFSVYMDRNGQESMLTLGAIDPSYYTGSLHWVPVTVQQYWQFTVDSVTISGVVVACEGGCQAILDTGTSVLVGPSSDILNIQQAIGATQNQYGEFDIDCDNLSYMPTVVFEINGKMYPLTPSAYTSQDQGFCTSGFQSENHSQKWILGDVFIREYYSVFDRANNLVGLAKAI | 8.8e+06 | 2.5e+06 | – | – |
| camel chymosin variant #166 (I297T) (protein) GKVAREPLTSYLDSQYFGKIYIGTPPQEFTVVFDTGSSDLWVPSIYCKSNVCKNHHRFDPRKSSTFRNLGKPLSIHYGTGSMEGFLGYDTVTVSNIVDPNQTVGLSTEQPGEVFTYSEFDGILGLAYPSLASEYSVPVFDNMMDRHLVARDLFSVYMDRNGQGSMLTLGAIDPSYYTGSLHWVPVTLQQYWQFTVDSVTINGVAVACVGGCQAILDTGTSVLFGPSSDILKIQMAIGATENRYGEFDVNCGNLRSMPTVVFEINGRDYPLSPSAYTSKDQGFCTSGFQGDNNSELWTLGDVFIREYYSVFDRANNRVGLAKAI | 2.1e+07 | 4.2e+06 | 0.9 | 3.1 |
| camel chymosin variant #136 (F223C) (protein) GKVAREPLTSYLDSQYFGKIYIGTPPQEFTVVFDTGSSDLWVPSIYCKSNVCKNHHRFDPRKSSTFRNLGKPLSIHYGTGSMEGFLGYDTVTVSNIVDPNQTVGLSTEQPGEVFTYSEFDGILGLAYPSLASEYSVPVFDNMMDRHLVARDLFSVYMDRNGQGSMLTLGAIDPSYYTGSLHWVPVTLQQYWQFTVDSVTINGVAVACVGGCQAILDTGTSVLCGPSSDILKIQMAIGATENRYGEFDVNCGNLRSMPTVVFEINGRDYPLSPSAYTSKDQGFCTSGFQGDNNSELWILGDVFIREYYSVFDRANNRVGLAKAI | 2.86e+07 | 1.06e+07 | 0.7 | 1.9 |
| camel chymosin variant #137 (F223D) (protein) GKVAREPLTSYLDSQYFGKIYIGTPPQEFTVVFDTGSSDLWVPSIYCKSNVCKNHHRFDPRKSSTFRNLGKPLSIHYGTGSMEGFLGYDTVTVSNIVDPNQTVGLSTEQPGEVFTYSEFDGILGLAYPSLASEYSVPVFDNMMDRHLVARDLFSVYMDRNGQGSMLTLGAIDPSYYTGSLHWVPVTLQQYWQFTVDSVTINGVAVACVGGCQAILDTGTSVLDGPSSDILKIQMAIGATENRYGEFDVNCGNLRSMPTVVFEINGRDYPLSPSAYTSKDQGFCTSGFQGDNNSELWILGDVFIREYYSVFDRANNRVGLAKAI | 3.14e+07 | 1.1e+07 | 0.7 | 2.3 |
| camel chymosin variant #167 (I297V) (protein) GKVAREPLTSYLDSQYFGKIYIGTPPQEFTVVFDTGSSDLWVPSIYCKSNVCKNHHRFDPRKSSTFRNLGKPLSIHYGTGSMEGFLGYDTVTVSNIVDPNQTVGLSTEQPGEVFTYSEFDGILGLAYPSLASEYSVPVFDNMMDRHLVARDLFSVYMDRNGQGSMLTLGAIDPSYYTGSLHWVPVTLQQYWQFTVDSVTINGVAVACVGGCQAILDTGTSVLFGPSSDILKIQMAIGATENRYGEFDVNCGNLRSMPTVVFEINGRDYPLSPSAYTSKDQGFCTSGFQGDNNSELWVLGDVFIREYYSVFDRANNRVGLAKAI | 2.73e+07 | 8e+06 | 0.7 | 2.9 |
